Data on 20 molecules can be found in US20230293638A1 (Eli Lilly, published 2023).

Numbering of substitutions follows the chain as printed. Numbered stars: 1 amine (or outer) side, 2 acyl side, 3 side chain; on linkers, the order of the positions; unused ones are H or OH. Square brackets hold non-standard residues; d marks the D form. Side chains are listed from the residue outwards. Ends that are not written are not given here. * marks the point of attachment. C20 diacid = O=C(O)CCCCCCCCCCCCCCCCCCC(=O)*; C18 diacid = O=C(O)CCCCCCCCCCCCCCCCC(=O)*; γGlu = O=C(O)[C@H](CCC(=O)[*:2])N[*:1]; αMeP = C[C@@]1(C(=O)O)CCCN1; AEEA = NCCOCCOCC(=O)O; Aib = CC(C)(N)C(=O)O

First the molecules themselves.
B1: Peptide 25 (peptide)
peptide: Y[Aib]EGTFTSDYSK([AEEA-AEEA-γGlu-C20 diacid])LLDKIAQ[Aib]AFIEYLIEGGPSSGAPPPS-NH2
modifications: N-terminus assumed
SMILES: CC[C@H](C)[C@H](NC(=O)[C@H](CCCCN)NC(=O)[C@H](CC(=O)O)NC(=O)[C@H](CC(C)C)NC(=O)[C@H](CC(C)C)NC(=O)[C@H](CCCCNC(=O)COCCOCCNC(=O)COCCOCCNC(=O)CC[C@H](NC(=O)CCCCCCCCCCCCCCCCCCC(=O)O)C(=O)O)NC(=O)[C@H](CO)NC(=O)[C@H](Cc1ccc(O)cc1)NC(=O)[C@H](CC(=O)O)NC(=O)[C@H](CO)NC(=O)[C@@H](NC(=O)[C@H](Cc1ccccc1)NC(=O)[C@@H](NC(=O)CNC(=O)[C@H](CCC(=O)O)NC(=O)C(C)(C)NC(=O)[C@@H](N)Cc1ccc(O)cc1)[C@@H](C)O)[C@@H](C)O)C(=O)N[C@@H](C)C(=O)N[C@@H](CCC(N)=O)C(=O)NC(C)(C)C(=O)N[C@@H](C)C(=O)N[C@@H](Cc1ccccc1)C(=O)N[C@H](C(=O)N[C@@H](CCC(=O)O)C(=O)N[C@@H](Cc1ccc(O)cc1)C(=O)N[C@@H](CC(C)C)C(=O)N[C@H](C(=O)N[C@@H](CCC(=O)O)C(=O)NCC(=O)NCC(=O)N1CCC[C@H]1C(=O)N[C@@H](CO)C(=O)N[C@@H](CO)C(=O)NCC(=O)N[C@@H](C)C(=O)N1CCC[C@H]1C(=O)N1CCC[C@H]1C(=O)N1CCC[C@H]1C(=O)N[C@@H](CO)C(N)=O)[C@@H](C)CC)[C@@H](C)CC
B2: Peptide 26 (peptide)
peptide: Y[Aib]EGTFTSDYSIK([AEEA-AEEA-γGlu-C20 diacid])LDKIAQ[Aib]AFIEYLIEGGPSSGAPPPS-NH2
modifications: N-terminus assumed
SMILES: CC[C@H](C)[C@H](NC(=O)[C@H](CCCCN)NC(=O)[C@H](CC(=O)O)NC(=O)[C@H](CC(C)C)NC(=O)[C@H](CCCCNC(=O)COCCOCCNC(=O)COCCOCCNC(=O)CC[C@H](NC(=O)CCCCCCCCCCCCCCCCCCC(=O)O)C(=O)O)NC(=O)[C@@H](NC(=O)[C@H](CO)NC(=O)[C@H](Cc1ccc(O)cc1)NC(=O)[C@H](CC(=O)O)NC(=O)[C@H](CO)NC(=O)[C@@H](NC(=O)[C@H](Cc1ccccc1)NC(=O)[C@@H](NC(=O)CNC(=O)[C@H](CCC(=O)O)NC(=O)C(C)(C)NC(=O)[C@@H](N)Cc1ccc(O)cc1)[C@@H](C)O)[C@@H](C)O)[C@@H](C)CC)C(=O)N[C@@H](C)C(=O)N[C@@H](CCC(N)=O)C(=O)NC(C)(C)C(=O)N[C@@H](C)C(=O)N[C@@H](Cc1ccccc1)C(=O)N[C@H](C(=O)N[C@@H](CCC(=O)O)C(=O)N[C@@H](Cc1ccc(O)cc1)C(=O)N[C@@H](CC(C)C)C(=O)N[C@H](C(=O)N[C@@H](CCC(=O)O)C(=O)NCC(=O)NCC(=O)N1CCC[C@H]1C(=O)N[C@@H](CO)C(=O)N[C@@H](CO)C(=O)NCC(=O)N[C@@H](C)C(=O)N1CCC[C@H]1C(=O)N1CCC[C@H]1C(=O)N1CCC[C@H]1C(=O)N[C@@H](CO)C(N)=O)[C@@H](C)CC)[C@@H](C)CC
B3: Peptide 202 (peptide)
peptide: YXEGTXTSDXSIXLDKKAQXEFIXYLIEGGPSSGAPPPS
modifications: Aib2; αMeF(2F)6; 4Pal10; αMeL13; K17((2-[2-(2-Amino-ethoxy)-ethoxy]-acetyl)-(γGlu)-(2-[2-(2-Amino-ethoxy)-ethoxy]-acetyl)-CO-(CH2)18-CO2H); Aib20; D-Glu24; C-terminal NH2
B4: Peptide 218 (peptide)
peptide: B3 peptide with X10Y, K16X
modifications: Aib2; αMeF(2F)6; αMeL13; Dap16; K17((2-[2-(2-Amino-ethoxy)-ethoxy]-acetyl)2-(γGlu)-CO-(CH2)18-CO2H); Aib20; D-Glu24; C-terminal NH2
B5: Peptide 214 (peptide)
peptide: B3 peptide with X10Y, K16E
modifications: Aib2; αMeF(2F)6; αMeL13; K17((2-[2-(2-Amino-ethoxy)-ethoxy]-acetyl)2-CO-(CH2)16-CO2H); Aib20; D-Glu24; C-terminal NH2
B6: Peptide 208 (peptide)
peptide: B3 peptide with X10Y, K16E
modifications: Aib2; αMeF(2F)6; αMeL13; K17((2-[2-(2-Amino-ethoxy)-ethoxy]-acetyl)2-(γGlu)-CO-(CH2)14-CO2H); Aib20; D-Glu24; C-terminal NH2
B7: Peptide 211 (peptide)
peptide: B3 peptide with X10Y
modifications: Aib2; αMeF(2F)6; αMeL13; K17((2-[2-(2-Amino-ethoxy)-ethoxy]-acetyl)-(γGlu)-(2-[2-(2-Amino-ethoxy)-ethoxy]-acetyl)-CO-(CH2)18-CO2H); Aib20; D-Glu24; C-terminal NH2
B8: Peptide 207 (peptide)
peptide: B3 peptide with K16E
modifications: Aib2; αMeF(2F)6; 4Pal10; αMeL13; K17((2-[2-(2-Amino-ethoxy)-ethoxy]-acetyl)2-(εK)-CO-(CH2)18-CO2H); Aib20; D-Glu24; C-terminal NH2
B9: Peptide 217 (peptide)
peptide: B3 peptide with X10Y, K16X
modifications: Aib2; αMeF(2F)6; αMeL13; Dab16; K17((2-[2-(2-Amino-ethoxy)-ethoxy]-acetyl)2-(γGlu)-CO-(CH2)18-CO2H); Aib20; D-Glu24; C-terminal NH2
B10: Peptide 215 (peptide)
peptide: B3 peptide with X10Y, K16E
modifications: Aib2; αMeF(2F)6; αMeL13; K17((2-[2-(2-Amino-ethoxy)-ethoxy]-acetyl)2-CO-(CH2)18-CO2H); Aib20; D-Glu24; C-terminal NH2
B11: Peptide 212 (peptide)
peptide: B3 peptide with X10Y
modifications: Aib2; αMeF(2F)6; αMeL13; K17((2-[2-(2-Amino-ethoxy)-ethoxy]-acetyl)2-(γGlu)-CO-(CH2)18-CO2H); Aib20; D-Glu24; C-terminal NH2
B12: Peptide 206 (peptide)
peptide: B3 peptide with K16E
modifications: Aib2; αMeF(2F)6; 4Pal10; αMeL13; K17((2-[2-(2-Amino-ethoxy)-ethoxy]-acetyl)2-CO-(CH2)18-CO2H); Aib20; D-Glu24; C-terminal NH2
B13: Peptide 216 (peptide)
peptide: B3 peptide with X10Y, K16E
modifications: Aib2; αMeF(2F)6; αMeL13; K17((2-[2-(2-Amino-ethoxy)-ethoxy]-acetyl)2-(εK)-CO-(CH2)18-CO2H); Aib20; D-Glu24; C-terminal NH2
B14: Peptide 205 (peptide)
peptide: B3 peptide with K16E
modifications: Aib2; αMeF(2F)6; 4Pal10; αMeL13; K17((2-[2-(2-Amino-ethoxy)-ethoxy]-acetyl)2-CO-(CH2)16-CO2H); Aib20; D-Glu24; C-terminal NH2
B15: Peptide 203 (peptide)
peptide: B3 peptide
modifications: Aib2; αMeF(2F)6; 4Pal10; αMeL13; K17((2-[2-(2-Amino-ethoxy)-ethoxy]-acetyl)2-(γGlu)-CO-(CH2)18-CO2H); Aib20; D-Glu24; C-terminal NH2
B16: Peptide 213 (peptide)
peptide: B3 peptide with X10Y, K16E
modifications: Aib2; αMeF6; αMeL13; K17((2-[2-(2-Amino-ethoxy)-ethoxy]-acetyl)2-(γGlu)-CO-(CH2)16-CO2H); Aib20; D-Glu24; C-terminal NH2
B17: Peptide 204 (peptide)
peptide: B3 peptide with K16E
modifications: Aib2; αMeF(2F)6; 4Pal10; αMeL13; K17((2-[2-(2-Amino-ethoxy)-ethoxy]-acetyl)2-(γGlu)-CO-(CH2)16-CO2H); Aib20; D-Glu24; C-terminal NH2
B18: Peptide 210 (peptide)
peptide: B3 peptide with X10Y, K16X
modifications: Aib2; αMeF(2F)6; αMeL13; Dap16; K17((2-[2-(2-Amino-ethoxy)-ethoxy]-acetyl)2-(γGlu)-CO-(CH2)16-CO2H); Aib20; D-Glu24; C-terminal NH2
B19: Peptide 219 (peptide)
peptide: YXEGTXTSDYSIXLDEKAQXEFIXYLIEGGPSSG
modifications: Aib2; αMeF(2F)6; αMeL13; K17((2-[2-(2-Amino-ethoxy)-ethoxy]-acetyl)2-(γGlu)-CO-(CH2)16-CO2H); Aib20; D-Glu24; C-terminal NH2
B20: Peptide 197 (peptide)
peptide: Y[αMeP]EGTFTSDYSILLDEK([AEEA-AEEA-γGlu-C18 diacid])AQQAFIEYLIEGGPSSG-NH2
modifications: N-terminus assumed
SMILES: CC[C@H](C)[C@H](NC(=O)[C@H](CC(C)C)NC(=O)[C@H](Cc1ccc(O)cc1)NC(=O)[C@H](CCC(=O)O)NC(=O)[C@@H](NC(=O)[C@H](Cc1ccccc1)NC(=O)[C@H](C)NC(=O)[C@H](CCC(N)=O)NC(=O)[C@H](CCC(N)=O)NC(=O)[C@H](C)NC(=O)[C@H](CCCCNC(=O)COCCOCCNC(=O)COCCOCCNC(=O)CC[C@H](NC(=O)CCCCCCCCCCCCCCCCC(=O)O)C(=O)O)NC(=O)[C@H](CCC(=O)O)NC(=O)[C@H](CC(=O)O)NC(=O)[C@H](CC(C)C)NC(=O)[C@H](CC(C)C)NC(=O)[C@@H](NC(=O)[C@H](CO)NC(=O)[C@H](Cc1ccc(O)cc1)NC(=O)[C@H](CC(=O)O)NC(=O)[C@H](CO)NC(=O)[C@@H](NC(=O)[C@H](Cc1ccccc1)NC(=O)[C@@H](NC(=O)CNC(=O)[C@H](CCC(=O)O)NC(=O)[C@]1(C)CCCN1C(=O)[C@@H](N)Cc1ccc(O)cc1)[C@@H](C)O)[C@@H](C)O)[C@@H](C)CC)[C@@H](C)CC)C(=O)N[C@@H](CCC(=O)O)C(=O)NCC(=O)NCC(=O)N1CCC[C@H]1C(=O)N[C@@H](CO)C(=O)N[C@@H](CO)C(=O)NCC(N)=O

The experiment concerns the target human GLP-1 receptor (human, UniProt P43220 24-463). Put plainly: cell-based or functional assay.
With B1, the “hGLPIR cAMP EC50 ratio” value is 0.197.

Take B2: the “hGLPIR cAMP EC50 ratio” value is 0.238.

Consider B3, for which the “hGLPIR cAMP EC50 ratio” value came out at 0.712.

For B4, the “hGLPIR cAMP EC50 ratio” value turned out to be 1.02.

Turning to B5, the “hGLPIR cAMP EC50 ratio” value was found to be 1.74.

Turning to B6, the “hGLPIR cAMP EC50 ratio” value turned out to be 0.587.

B7: the “hGLPIR cAMP EC50 ratio” value came out at 1.28.

B8: the “hGLPIR cAMP EC50 ratio” value came out at 1.23.

On to B9, for which the “hGLPIR cAMP EC50 ratio” value was 1.14.

For B10, the “hGLPIR cAMP EC50 ratio” value was 0.813.

For the molecule B11, the “hGLPIR cAMP EC50 ratio” value was 0.771.

Take B12: the “hGLPIR cAMP EC50 ratio” value is 1.42.

As to B13, the “hGLPIR cAMP EC50 ratio” value was 1.31.

As to B14, the “hGLPIR cAMP EC50 ratio” value came out at 1.46.

Regarding B15, the “hGLPIR cAMP EC50 ratio” value was 0.671.

As for B16, the “hGLPIR cAMP EC50 ratio” value worked out at 0.694.

For B17, the “hGLPIR cAMP EC50 ratio” value amounted to 0.689.

Regarding B18, the “hGLPIR cAMP EC50 ratio” value worked out at 1.03.

B19: the “hGLPIR cAMP EC50 ratio” value was 1.03.

As for B20, the “hGLPIR cAMP EC50 ratio” value turned out to be 0.189.
